Series [1] addresses Protein A (UniProt P02976). The experiment in a line: EIS. The note with it: apparent; 2 mM ferri-/ferrocyanide; Hill h 1.14 +/- 0.15; 3' C6 spacer and thiol; immobilized on gold with MCH; BB: 100 mM NaCl, 20 mM Tris, 10 mM MgCl2, 5 mM KCl, 1 mM CaCl2, pH 7.6; MST in BBT (0.005% Tween 20) at 25 C, 2bind MST with 0.05% Tween 20; EIS in BB + 2 mM ….
Series [2] deals with Protein A (UniProt P02976). The experiment in a line: MST. As to conditions: BB: 100 mM NaCl, 20 mM Tris, 10 mM MgCl2, 5 mM KCl, 1 mM CaCl2, pH 7.6, MST in BBT (0.005% Tween 20) at 25 C, 2bind MST with 0.05% Tween 20, EIS in BB + 2 mM ….
In series [3] the target is Protein A (cited studies) (UniProt P02976). The experiment in a line: MST. The note with it: 5' thiol; BB: 100 mM NaCl, 20 mM Tris, 10 mM MgCl2, 5 mM KCl, 1 mM CaCl2, pH 7.6; MST in BBT (0.005% Tween 20) at 25 C, 2bind MST with 0.05% Tween 20; EIS in BB + 2 mM …; cited from earlier work.
Series [4] shares this target. As to the kind of experiment: SPR. As to conditions: BB: 100 mM NaCl, 20 mM Tris, 10 mM MgCl2, 5 mM KCl, 1 mM CaCl2, pH 7.6, MST in BBT (0.005% Tween 20) at 25 C, 2bind MST with 0.05% Tween 20, EIS in BB + 2 mM …, cited from earlier work.
Series [5] has the same target. As to the kind of experiment: ELONA. As to conditions: BB: 100 mM NaCl, 20 mM Tris, 10 mM MgCl2, 5 mM KCl, 1 mM CaCl2, pH 7.6; MST in BBT (0.005% Tween 20) at 25 C, 2bind MST with 0.05% Tween 20; EIS in BB + 2 mM …; cited from earlier work.
For series [6] the target is unchanged. As to the kind of experiment: RIFTS. As to conditions: aptamer immobilized on porous silicon, h 2.61 +/- 0.69, 3' amino, BB: 100 mM NaCl, 20 mM Tris, 10 mM MgCl2, 5 mM KCl, 1 mM CaCl2, pH 7.6, MST in BBT (0.005% Tween 20) at 25 C, 2bind MST with 0.05% Tween 20, EIS in BB + 2 mM …; cited from earlier work.

Regarding “ATACCAGCTTATTCAATTAGCAACATGAGGGGGATAGAGGGGGTGGGTTCTCTCGGCT [PAA (PA#2/8[S1-58]), 3'-thiol on gold]”, the Kd in series [1] came to 18.5 nM.

In the case of “ATACCAGCTTATTCAATTAGCAACATGAGGGGGATAGAGGGGGTGGGTTCTCTCGGCT [PAA, 5'-fluorescent]”, the Kd in series [2] (BB + 0.05% Tween 20 (2bind), 5' thiol) was 116 nM; in series [3], 94.7 nM; in series [4] (5' thiol), 1920 nM.

Take “ATACCAGCTTATTCAATTAGCAACATGAGGGGGATAGAGGGGGTGGGTTCTCTCGGCT [PAA, 5'-biotin]”: in series [5], the Kd was 23.7 nM.

As to “ATACCAGCTTATTCAATTAGCAACATGAGGGGGATAGAGGGGGTGGGTTCTCTCGGCT [PAA, 3'-fluorescent]”, the Kd is 111 nM in series [2] (BB + 0.05% Tween 20 (2bind), 3' C6 spacer, thiol); 16.4 nM in series [2] (BBT + 2 mM ferri-/ferrocyanide, 3' C6 spacer, thiol); 22.4 nM in series [2] (BBT, 0.005% Tween 20, no ferri-/ferrocyanide, 3' C6 spacer, thiol).

Regarding “ATACCAGCTTATTCAATTAGCAACATGAGGGGGATAGAGGGGGTGGGTTCTCTCGGCT [PAA, 3'-biotin]”, the figures for the Kd in series [5] and in series [4] were 11.3 nM and 287 nM, respectively.

For “ATACCAGCTTATTCAATTAGCAACATGAGGGGGATAGAGGGGGTGGGTTCTCTCGGCT [PAA, 3'-amino]”, the Kd in series [6] is 14000 nM.

These data come from PMC5713450.
